Our source for the Kd, koff and kon values is publication PMC4786110.

By Kd is commonly meant the constant that tells how readily two partners part at equilibrium. A low value points to a tighter complex. Usually koff stands for a measure of how fast the partners let go of each other. Lower therefore signals slow dissociation. As usually defined, the kon is the second-order rate constant of association. Read a high kon as fast association.

The target of this test is aMh-FcG2a, nanobody aMh fused with the Fc domain of mouse IgG2a (Camelus bactrianus | camel | mouse). Description: SPR; Biacore 3000; aMh-Fc captured by anti-mouse IgG immobilised on a CM5 chip; antigen flowed at 5.95-595 nM; 25°C, HBS-EP pH 7.4, 30 μl/min; 1:1 fitting.
aMh-FcG2a, nanobody aMh fused with the Fc domain of mouse IgG2a (Camelus bactrianus | camel | mouse), sequence (heavy, as listed by the source): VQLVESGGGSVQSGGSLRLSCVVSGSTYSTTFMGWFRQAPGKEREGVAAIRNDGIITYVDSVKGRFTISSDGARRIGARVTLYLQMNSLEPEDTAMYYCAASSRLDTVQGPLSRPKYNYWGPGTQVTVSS

“ABC transporter substrate binding protein (MH3620) of Mycoplasma hominis (natural protein)” gave a Kd of 5.94 nM, a koff of 0.000106 s⁻¹ and a kon of 17800 M⁻¹ s⁻¹.
